# Laboratory results published in the supplement of paper PMC5998384.
# Columns and labels:
# HeLa Kyoto [1] = assay: solubility in G1/S (NP-40 vs SDS abundance) (log2 ratio); higher = more soluble; conditions: cell cycle stage: G1/S
# HeLa Kyoto [2] = assay: thermal stability score vs G1/S (z-score of summed log2 fold changes over temperatures); higher = more thermally stable than in G1/S
# HeLa Kyoto [3] = assay: solubility change mitosis vs G1/S (difference of NP-40 vs SDS log2 ratios) (log2 ratio difference); higher = more soluble in mitosis
# HeLa Kyoto [4] = assay: melting temperature (median over replicates), in situ; higher = more thermally stable
# [5] = cell cycle stage: early G1 (4.5 h after nocodazole release)
# 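Wherever melting temperature (median over replicates), in situ is given: HeLa Kyoto cells synchronized by double thymidine or nocodazole block, proteins quantified by TMT10plex mass spectrometry, three independent biological replicates.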
# 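Wherever solubility change mitosis vs G1/S (difference of NP-40 vs SDS log2 ratios) is given: synchronized HeLa Kyoto cells (double thymidine block for G1/S, nocodazole release for mitosis), protein amounts in NP-40 versus SDS lysates quantified by mass spectrometry, three biological replicates.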
# 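Wherever solubility in G1/S (NP-40 vs SDS abundance) is given: HeLa Kyoto cells arrested at G1/S by double thymidine block, proteins quantified by TMT10plex mass spectrometry in mild NP-40 versus SDS extracts, three biological replicates.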
# 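Wherever thermal stability score vs G1/S (z-score of summed log2 fold changes over temperatures) is given: synchronized HeLa Kyoto cells, proteins quantified by TMT10plex mass spectrometry, three biological replicates, mitosis taken 0.5 h after nocodazole release, G1/S directly after double thymidine block.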
Sequence,solubility in G1/S (log2) (HeLa Kyoto [1]),thermal stability score (HeLa Kyoto [2]; [5]),thermal stability score (HeLa Kyoto [2]; cell cycle stage: mitosis),solubility change mitosis (log2) (HeLa Kyoto [3]),melting temperature (HeLa Kyoto [4]; cell cycle stage: G1/S) [°C],melting temperature (HeLa Kyoto [4]; cell cycle stage: mitosis) [°C]
MPEDQAGAAMEEASPYSLLDICLNFLTTHLEKFCSARQDGTLCLQEPGVFPQEVADRLLRTMAFHGLLNDGTVGIFRGNQMRLKRACIRKAKISAVAFRKAFCHHKLVELDATGVNADITITDIISGLGSNKWIQQNLQCLVLNSLTLSLEDPYERCFSRLSGLRALSITNVLFYNEDLAEVASLPRLESLDISNTSITDITALLACKDRLKSLTMHHLKCLKMTTTQILDVVRELKHLNHLDISDDKQFTSDIALRLLEQKDILPNLVSLDVSGRKHVTDKAVEAFIQQRPSMQFVGLLATDAGYSEFLTGEGHLKVSGEANETQIAEALKRYSERAFFVREALFHLFSLTHVMEKTKPEILKLVVTGMRNHPMNLPVQLAASACVFNLTKQDLAAGMPVRLLADVTHLLLKAMEHFPNHQQLQKNCLLSLCSDRILQDVPFNRFEAAKLVMQWLCNHEDQNMQRMAVAIISILAAKLSTEQTAQLGTELFIVRQLLQIVKQKTNQNSVDTTLKFTLSALWNLTDESPTTCRHFIENQGLELFMRVLESFPTESSIQQKVLGLLNNIAEVQELHSELMWKDFIDHISSLLHSVEVEVSYFAAGIIAHLISRGEQAWTLSRSQRNSLLDDLHSAILKWPTPECEMVAYRSFNPFFPLLGCFTTPGVQLWAVWAMQHVCSKNPSRYCSMLIEEGGLQHLYNIKDHEHTDPHVQQIAVAILDSLEKHIVRHGRPPPCKKQPQARLN [ZYG11B],-0.136,2.24,0.857,-0.182,52.4,52.3
MPEEGSGCSVRRRPYGCVLRAALVPLVAGLVICLVVCIQRFAQAQQQLPLESLGWDVAELQLNHTGPQQDPRLYWQGGPALGRSFLHGPELDKGQLRIHRDGIYMVHIQVTLAICSSTTASRHHPTTLAVGICSPASRSISLLRLSFHQGCTIASQRLTPLARGDTLCTNLTGTLLPSRNTDETFFGVQWVRP [CD70],0.258,-2.35,-1.58,-0.0934,54.9,57.1
MPFAEDKTYKYICRNFSNFCNVDVVEILPYLPCLTARDQDRLRATCTLSGNRDTLWHLFNTLQRRPGWVEYFIAALRGCELVDLADEVASVYQSYQPRTSDRPPDPLEPPSLPAERPGPPTPAAAHSIPYNSCREKEPSYPMPVQETQAPESPGENSEQALQTLSPRAIPRNPDGGPLESSSDLAALSPLTSSGHQEQDTELGSTHTAGATSSLTPSRGPVSPSVSFQPLARSTPRASRLPGPTGSVVSTGTSFSSSSPGLASAGAAEGKQGAESDQAEPIICSSGAEAPANSLPSKVPTTLMPVNTVALKVPANPASVSTVPSKLPTSSKPPGAVPSNALTNPAPSKLPINSTRAGMVPSKVPTSMVLTKVSASTVPTDGSSRNEETPAAPTPAGATGGSSAWLDSSSENRGLGSELSKPGVLASQVDSPFSGCFEDLAISASTSLGMGPCHGPEENEYKSEGTFGIHVAENPSIQLLEGNPGPPADPDGGPRPQADRKFQEREVPCHRPSPGALWLQVAVTGVLVVTLLVVLYRRRLH [MAVS],0.462,-0.897,-0.611,-0.239,54.2,54.4
MPGPAAGSRARVYAEVNSLRSREYWDYEAHVPSWGNQDDYQLVRKLGRGKYSEVFEAINITNNERVVVKILKPVKKKKIKREVKILENLRGGTNIIKLIDTVKDPVSKTPALVFEYINNTDFKQLYQILTDFDIRFYMYELLKALDYCHSKGIMHRDVKPHNVMIDHQQKKLRLIDWGLAEFYHPAQEYNVRVASRYFKGPELLVDYQMYDYSLDMWSLGCMLASMIFRREPFFHGQDNYDQLVRIAKVLGTEELYGYLKKYHIDLDPHFNDILGQHSRKRWENFIHSENRHLVSPEALDLLDKLLRYDHQQRLTAKEAMEHPYFYPVVKEQSQPCADNAVLSSGLTAAR [CSNK2A2],-0.244,1.94,2.34,0.0267,50.7,50.3
MPGSLPLNAEACWPKDVGIVALEIYFPSQYVDQAELEKYDGVDAGKYTIGLGQAKMGFCTDREDINSLCMTVVQNLMERNNLSYDCIGRLEVGTETIIDKSKSVKTNLMQLFEESGNTDIEGIDTTNACYGGTAAVFNAVNWIESSSWDGRYALVVAGDIAVYATGNARPTGGVGAVALLIGPNAPLIFERGLRGTHMQHAYDFYKPDMLSEYPIVDGKLSIQCYLSALDRCYSVYCKKIHAQWQKEGNDKDFTLNDFGFMIFHSPYCKLVQKSLARMLLNDFLNDQNRDKNSIYSGLEAFGDVKLEDTYFDRDVEKAFMKASSELFSQKTKASLLVSNQNGNMYTSSVYGSLASVLAQYSPQQLAGKRIGVFSYGSGLAATLYSLKVTQDATPGSALDKITASLCDLKSRLDSRTGVAPDVFAENMKLREDTHHLVNYIPQGSIDSLFEGTWYLVRVDEKHRRTYARRPTPNDDTLDEGVGLVHSNIATEHIPSPAKKVPRLPATAAEPEAAVISNGEH [HMGCS1],0.0526,-0.19,3.42,-0.0813,54,55.2
MPGVKLTTQAYCKMVLHGAKYPHCAVNGLLVAEKQKPRKEHLPLGGPGAHHTLFVDCIPLFHGTLALAPMLEVALTLIDSWCKDHSYVIAGYYQANERVKDASPNQVAEKVASRIAEGFSDTALIMVDNTKFTMDCVAPTIHVYEHHENRWRCRDPHHDYCEDWPEAQRISASLLDSRSYETLVDFDNHLDDIRNDWTNPEINKAVLHLC [EMC8],0.269,-1.83,-2.67,-0.272,53.1,53.3
MPHRKKKPFIEKKKAVSFHLVHRSQRDPLAADESAPQRVLLPTQKIDNEERRAEQRKYGVFFDDDYDYLQHLKEPSGPSELIPSSTFSAHNRREEKEETLVIPSTGIKLPSSVFASEFEEDVGLLNKAAPVSGPRLDFDPDIVAALDDDFDFDDPDNLLEDDFILQANKATGEEEGMDIQKSENEDDSEWEDVDDEKGDSNDDYDSAGLLSDEDCMSVPGKTHRAIADHLFWSEETKSRFTEYSMTSSVMRRNEQLTLHDERFEKFYEQYDDDEIGALDNAELEGSIQVDSNRLQEVLNDYYKEKAENCVKLNTLEPLEDQDLPMNELDESEEEEMITVVLEEAKEKWDCESICSTYSNLYNHPQLIKYQPKPKQIRISSKTGIPLNVLPKKGLTAKQTERIQMINGSDLPKVSTQPRSKNESKEDKRARKQAIKEERKERRVEKKANKLAFKLEKRRQEKELLNLKKNVEGLKL [LTV1],-0.271,-2.27,-0.672,-0.0961,50.1,48.8
MPHSYPALSAEQKKELSDIALRIVAPGKGILAADESVGSMAKRLSQIGVENTEENRRLYRQVLFSADDRVKKCIGGVIFFHETLYQKDDNGVPFVRTIQDKGIVVGIKVDKGVVPLAGTDGETTTQGLDGLSERCAQYKKDGADFAKWRCVLKISERTPSALAILENANVLARYASICQQNGIVPIVEPEILPDGDHDLKRCQYVTEKVLAAVYKALSDHHVYLEGTLLKPNMVTPGHACPIKYTPEEIAMATVTALRRTVPPAVPGVTFLSGGQSEEEASFNLNAINRCPLPRPWALTFSYGRALQASALNAWRGQRDNAGAATEEFIKRAEVNGLAAQGKYEGSGEDGGAAAQSLYIANHAY [ALDOC],0.202,-1.31,-2.38,-0.0816,56.9,57
MPKKAKPTGSGKEEGPAPCKQMKLEAAGGPSALNFDSPSSLFESLISPIKTETFFKEFWEQKPLLIQRDDPALATYYGSLFKLTDLKSLCSRGMYYGRDVNVCRCVNGKKKVLNKDGKAHFLQLRKDFDQKRATIQFHQPQRFKDELWRIQEKLECYFGSLVGSNVYITPAGSQGLPPHYDDVEVFILQLEGEKHWRLYHPTVPLAREYSVEAEERIGRPVHEFMLKPGDLLYFPRGTIHQADTPAGLAHSTHVTISTYQNNSWGDFLLDTISGLVFDTAKEDVELRTGIPRQLLLQVESTTVATRRLSGFLRTLADRLEGTKELLSSDMKKDFIMHRLPPYSAGDGAELSTPGGKLPRLDSVVRLQFKDHIVLTVLPDQDQSDEAQEKMVYIYHSLKNSRETHMMGNEEETEFHGLRFPLSHLDALKQIWNSPAISVKDLKLTTDEEKESLVLSLWTECLIQVV [MINA],-0.11,3.05,0.952,-0.0273,53.4,51.4
MPKKKTGARKKAENRREREKQLRASRSTIDLAKHPCNASMECDKCQRRQKNRAFCYFCNSVQKLPICAQCGKTKCMMKSSDCVIKHAGVYSTGLAMVGAICDFCEAWVCHGRKCLSTHACACPLTDAECVECERGVWDHGGRIFSCSFCHNFLCEDDQFEHQASCQVLEAETFKCVSCNRLGQHSCLRCKACFCDDHTRSKVFKQEKGKQPPCPKCGHETQETKDLSMSTRSLKFGRQTGGEEGDGASGYDAYWKNLSSDKYGDTSYHDEEEDEYEAEDDEEEEDEGRKDSDTESSDLFTNLNLGRTYASGYAHYEEQEN [ZNF330],-0.262,3.84,0.774,-0.0758,50.4,50.9
MPKLQGFEFWSRTLRGARHVVAPMVDQSELAWRLLSRRHGAQLCYTPMLHAQVFVRDANYRKENLYCEVCPEDRPLIVQFCANDPEVFVQAALLAQDYCDAIDLNLGCPQMIAKRGHYGAFLQDEWDLLQRMILLAHEKLSVPVTCKIRVFPEIDKTVRYAQMLEKAGCQLLTVHGRTKEQKGPLSGAASWEHIKAVRKAVAIPVFANGNIQCLQDVERCLRDTGVQGVMSAEGNLHNPALFEGRSPAVWELAEEYLDIVREHPCPLSYVRAHLFKLWHHTLQVHQELREELAKVKTLEGIAAVSQELKLRCQEEISRQEGAKPTGDLPFHWICQPYIRPGPREGSKEKAGARSKRALEEEEGGTEVLSKNKQKKQLRNPHKTFDPSLKPKYAKCDQCGNPKGNRCVFSLCRGCCKKRASKETADCPGHGLLFKTKLEKSLAWKEAQPELQEPQPAAPGTPGGFSEVMGSALA [DUS1L],0.086,0.994,1.71,-0.169,47.3,48.9
MPLAQLKEPWPLMELVPLDPENGQTSGEEAGLQPSKDEGVLKEISITHHVKAGSEKADPSHFELLKVLGQGSFGKVFLVRKVTRPDSGHLYAMKVLKKATLKVRDRVRTKMERDILADVNHPFVVKLHYAFQTEGKLYLILDFLRGGDLFTRLSKEVMFTEEDVKFYLAELALGLDHLHSLGIIYRDLKPENILLDEEGHIKLTDFGLSKEAIDHEKKAYSFCGTVEYMAPEVVNRQGHSHSADWWSYGVLMFEMLTGSLPFQGKDRKETMTLILKAKLGMPQFLSTEAQSLLRALFKRNPANRLGSGPDGAEEIKRHVFYSTIDWNKLYRREIKPPFKPAVAQPDDTFYFDTEFTSRTPKDSPGIPPSAGAHQLFRGFSFVATGLMEDDGKPRAPQAPLHSVVQQLHGKNLVFSDGYVVKETIGVGSYSECKRCVHKATNMEYAVKVIDKSKRDPSEEIEILLRYGQHPNIITLKDVYDDGKHVYLVTELMRGGELLDKILRQKFFSEREASFVLHTIGKTVEYLHSQGVVHRDLKPSNILYVDESGNPECLRICDFGFAKQLRAENGLLMTPCYTANFVAPEVLKRQGYDEGCDIWSLGILLYTMLAGYTPFANGPSDTPEEILTRIGSGKFTLSGGNWNTVSETAKDLVSKMLHVDPHQRLTAKQVLQHPWVTQKDKLPQSQLSHQDLQLVKGAMAATYSALNSSKPTPQLKPIESSILAQRRVRKLPSTTL [RPS6KA1],0.0398,0.39,1.42,-0.118,49.6,50.2
MPLGLGRRKKAPPLVENEEAEPGRGGLGVGEPGPLGGGGSGGPQMGLPPPPPALRPRLVFHTQLAHGSPTGRIEGFTNVKELYGKIAEAFRLPTAEVMFCTLNTHKVDMDKLLGGQIGLEDFIFAHVKGQRKEVEVFKSEDALGLTITDNGAGYAFIKRIKEGSVIDHIHLISVGDMIEAINGQSLLGCRHYEVARLLKELPRGRTFTLKLTEPRKAFDMISQRSAGGRPGSGPQLGTGRGTLRLRSRGPATVEDLPSAFEEKAIEKVDDLLESYMGIRDTELAATMVELGKDKRNPDELAEALDERLGDFAFPDEFVFDVWGAIGDAKVGRY [GIPC1],0.314,-0.363,1.49,-0.156,49.5,48.7
